Data reported in patent publication US20050079151A1, “Therapeutic agents for apoptosis-related diseases” (priority 1998, published 2005).

Assays:
[1] = system: G401 cell lines derived from Wilms tumor; experiment: Inhibitory effect on apoptosis induced by a carcinostatic (MTT method); format: cell-based; details: MK 1, 10 or 100 ng/mL + cisplatin 100 μM, 12 hour culture, compared with the cisplatin treated group
Method: Apoptosis was induced in G401 cell lines derived from Wilms tumor, infantile renal cancer, by a carcinostatic to examine the apoptosis-inhibitory effect of MK by the MTT method.
Five groups were prepared; the untreated group, the cisplatin (100 μM) treated group, and the MK (1, 10 or 100 ng/mL)+cisplatin treated groups.
G401 cells were suspended in the Dulbecco Modified Eagle Medium containing 10% fetal bovine serum (FBS) (10% FBS/DMEM) and seeded into a 96-well plate at 5000 cells/well. The plate was incubated in a CO2 incubator (37° C., 5% CO2; the same shall apply hereinbelow) so that the cells could attach to the plate.
The cells were washed with DMEM containing 0.1% FBS (0.1% FBS/DMEM) twice (hereafter, 0.1% FBS/DMEM was used for washing unless otherwise indicated), and cultured in 0.1% FBS/DMEM overnight. After culturing, MK was added to the MK treated groups at 1, 10 or 100 ng/ml. Each group was cultured for 6 hours. Six μl of 0.5 mg/ml cisplatin (100 μM) (Bristol-Myers Squib Company; Tokyo) was added to the cisplatin treated groups. Each group was cultured in 0.1% FBS/DMEM for 2 hours. […]
Fifteen μl of MTT reagent (5 mg/ml) (Wako Pure Chemical Laboratories; Osaka) were added to each well of the above-mentioned five groups and cultured for 4 hours. […] Absorbance (OD540-655) in each well was measured using a microplate reader.

G401 cells = experiment: Inhibitory effect on apoptosis induced by carcinostatic (Hoechst staining method); format: cell-based
Method: Five groups were prepared; the untreated group, the cisplatin (100 μM) treated group, the MK (1, 10, or 100 ng/mL)+cisplatin (100 μM) treated groups.
G401 cells (2×10^4) were seeded on a 3.5 cm-dish and cultured in 10% FBS/DMEM overnight. 10% FBS/DMEM was added to each dish and further cultured for 24 to 48 hours. The cells were washed twice and cultured in 0.1% FBS/DMEM overnight. MK was added to the MK treatment groups to 1, 10, or 100 ng/ml and cultured in 0.1% FBS/DMEM for 6 hours. Cisplatin was added to the cisplatin treatment groups to 100 μM and cultured in 0.1% FBS/DMEM for 2 hours. After culturing, the cells were washed three times. Then, human MK was added to the MK treatment groups to 1, 10, or 100 ng/ml and cultured in 0.1% FBS/DMEM for 12 or 24 hours.
The cells were fixed with a fixative (methanol:acetic acid=3:1) at room temperature for 10 min, and dried at room temperature for 30 min. Hoechst 33342 (ICN Biomedicals; Ohio, USA) was added thereto to stain the cells at room temperature for 10 to 30 min. The cells were washed with water three times, wind-dried, and mounted onto a fluorescent microscope (Olympus, BX60) and photographed. FIGS. 2A, 2B, and 2C show the untreated group, the cisplatin (100 μM) treated group, and the MK (100 ng/mL)+cisplatin (100 μM) treated group, which were all cultured for 12 hours. […]

Bcl-2 = experiment: Effect for enhancing Bcl-2 expression (Western blotting); format: cell-based; details: G401 cells
Method: The effect of MK on the expression of the Bcl-2 gene was examined. Six groups were prepared; the untreated group, the cisplatin (100 μM) treated group, the human MK (100 ng/ml) treated group, the human MK (100 ng/ml)+cisplatin (100 μM) group, the mouse MK (100 ng/ml) treated group, and the mouse MK (100 ng/ml)+cisplatin (100 μM) treated group.
G401 cells were seeded on a 3.5 cm-dish and cultured in 10% FBS/DMEM until the cells became almost confluent. The cells were washed twice and cultured in 0.1% FBS/DMEM overnight. Then, human MK or mouse MK (JP-A No. Hei 8-196293) was added to the MK treatment groups at 100 ng/ml and cultured for six hours. Cisplatin was added to the cisplatin treatment group to 100 μM, and cultured for 2 hours. After culturing, the cells were washed with 0.1% FBS/DMEM three times, cultured in 0.1% FBS/DMEM for 10 hours, and washed with PBS three times.
Two hundred microliters of buffer [1% Triton X-100, 150 mM NaCl, 10 mM Tris (pH 7.4), 1.0 mM EGTA, 0.5% NP-40, 1 mM PMSF, 0.1 μg/ml apiotinin, 40 nM Iewpeptin] were added to each dish and kept on ice for 20 min. The cells in each dish were detached by a scraper, and mixed 8 to 10 times using a syringe with a 26-gauge needle. The cells of each dish were centrifuged in a centrifuge tube at 4° C. at 12000 rpm for 30 min. The precipitated proteins were quantified (BCA Kit; PIERCE). The precipitate prepared from each dish (50 μg) was analyzed by Western blotting using anti-Bcl-2 monoclonal antibody (500×) (Dako; Denmark) and anti-mouse HRP antibody (Jackson Immuno Research) (FIG. 6). The band in each lane is numerically shown (FIG. 7).

hippocampal neurocytes = experiment: Apoptosis-inhibitory effect in vivo, transient forebrain ischemia, MK administration after the ischemic injury; parameters: species or system Mongolian gerbil; details: counted seven days after injury
Method: MK (2.0 μg) was injected into the ventricle of a Mongolian gerbil transient forebrain ischemia model 2, 4, 6, 12, or 24 hours after the ischemic injury. The numbers of surviving hippocampal neurocytes were counted seven days after the ischemic injury (FIG. 16). When MK was administered at 2 hours after the injury, the number of surviving neurocytes decreased, compared to the Sham-op group, while it was considerably higher than the saline administrated group.
The numbers of surviving hippocampal neurocytes in the groups administered 2, 4, 6, 12, or 24 hours after the ligation were 120±36 (n=4), 90±23 (n=6), 80±13 (n=6), 86±34 (n=6), and 93±22 (n=4) cells/mm, respectively (FIG. 16).

B1: MK: midkine, a heparin-binding growth and differentiation factor; human MK protein (SEQ ID NO: 3; or recombinant, secreted by yeast) (protein, UniProt P21741 21-143, looked up)
Midkine: VAKKKDKVKKGGPGSECAEWAWGPCTPSSKDCGVGFREGTCGAQTQRIRCRVPCNWKKEFGADCKYKFENWGACDGGTGTKVRQGTLKKARYNAQCQETIRVTKPCTPKTKAKAKAKKGKGKD
[1]
  numbers of the surviving cells (MTT, absorbance OD540-655): increased numbers of the surviving cells in an MK concentration-dependent manner
G401 cells; MK 100 ng/mL + cisplatin 100 μM, 12 and 24 hours, compared to cisplatin alone
  numbers of cells containing Hoechst 33342-stained nuclei with condensed chromatin and fragmented nuclei: remarkably decreased
G401 cells; MK 1, 10 or 100 ng/ml + cisplatin 100 μM, 12 and 24 hours culture, compared with the cisplatin treated group
  Frequency of apoptotic cell death (Hoechst 33342): decreased in a MK concentration-dependent fasion
Bcl-2; MK 100 ng/ml, no cisplatin
  expression of Bcl-2: enhanced the expression of Bcl-2
Bcl-2; data not shown
  concentration showing the Bcl-2 enhancing effect: ≥ 10 ng/mL
Hippocampal neurocytes; MK 2.0 μg into the ventricle 2 hours after the ligation
  numbers of surviving hippocampal neurocytes: 120±36 cells/mm
Hippocampal neurocytes; MK 2.0 μg into the ventricle 4 hours after the ligation
  numbers of surviving hippocampal neurocytes: 90±23 cells/mm
Hippocampal neurocytes; MK 2.0 μg into the ventricle 6 hours after the ligation
  numbers of surviving hippocampal neurocytes: 80±13 cells/mm
Hippocampal neurocytes; MK 2.0 μg into the ventricle 12 hours after the ligation
  numbers of surviving hippocampal neurocytes: 86±34 cells/mm
Hippocampal neurocytes; MK 2.0 μg into the ventricle 24 hours after the ligation
  numbers of surviving hippocampal neurocytes: 93±22 cells/mm
